Experimental data as given in the DeepSol protein solubility set.

Assay: soluble on expression in E. coli; label from the status in PepcDB or PDB records

Sequence	soluble on expression in E. coli
MSLTEYVHGYSEREALRLSEQAETLEKLLHHDTVYPPGAKVLEAGCGIGAQTVILAKNNPDAEITSIDISPESLEKARENTEKNGIKNVKFLQANIFSLPFEDSSFDHIFVCFVLEHLQSPEEALKSLKKVLKPGGTITVIEGDHGSCYFHPEGKKAIEAWNCLIRVQAYMKGNSLVGRQIYPLLQESGFEKIRVEPRMVYIDSSKPELVDGFILKTIIPMVEGVKEQSLKMQIIKEEEWEKGIEELHKTAEHGGTFCYTFFKGWGTKEGHHHHHH	soluble
MSLTFTEQAKDQAQASWQGSFQHPFITELHEGTLSPTIFRYYLIQDHYYLKHFSQLYRLIAAQTQQPRLKKLLLTNAENLALGELAIRETFFEELAITEEEVAATPIAPTAYHYVSHMYRQLIEGTPKTAAASMLPCSWLYQEIGAQLVKQHSPEPLYQRWIETYAGEEAYQHVQEERQLLDQLYEESSPQEQAAMITAFVISSEMEYAFWEMAYTHETWIGEGGSHHHHHH	soluble
MSLTILAIDTSNYTLGIALLREDTVIAEYITYLKKNHSVRAMPAVHSLLNDCDMAPQDLSKIVVAKGPGSYTGVRIGVTLAKTLAWSLDIPISAVSSLETLAANGRHFDGLISPIFDARRGQVYTGLYQYKNGLLEQVVPDQNVMLADWLEMLKEKDRPVLFLGHDTSLHKQMIEDVLGTKGFIGTAAQHNPRPSELAFLGKEKEAADVHGLVPDYLRLAEAEAKWIESQKEGHHHHHH	soluble
MSLTILELTFATNQLTTTFFNHKLEPLHQKTFPFEALTIEETVPELCQLILAEAAPILGGIVADFPADFFSPEETLALVPQAVIQAFAEQLNTPLLTAAEQAAAPNLLEAFEEKRQYLAWHLDYYGYVPGKNEYAVESLLTVGNGFLGLRGTTPEMTISDDHYPATYIAGLYNTAASEVAGQVVENEDFVNAPDNQHIALKIGDATDWLTISPDTLQQLHRQLNLKTGLFVAEMILKDADNQQIKLTTKKIANMAQPNDYHLQYTFEPLNFSAPITLKTVTDGSVYNYNVARYRNLTAKHFQVTALSAQENKTVIEVCTNQSNLSVRETSLITGDFFEKEAITIQEEAEKIAQVVTVMAHQGTRYTLEKQVFVQASHAEQSWQVPFTPKDSFAAAAQESARAWQTLWQQANITVTGDLMSQKLLRIHSYHLLASASPFSNQAQALDVSITARGLHGEAYRGHIFWDEIFILPFYIQHYPDTAKQLLLYRYHRLEKAKENAAASQYRGAMYPWQSGRDGRETTQKLHLNPLNGHWGEDHSILQRHVSLAIAYNAWLYWHSTQDHEFMKQYGGEMLLEIAQFWNSAATLDDATGRFFIDKVMGPDEFHEGYPDQAESGLKNNAYTNLMVVWLFEELTNILALFSEEEQAQLFAKTQTTSADLARMQQIQNSLEIEVNSDGIIAQYEGYFGLKEIDWTAMKEKYGNIYRMDRILKAEGESPDDYKVAKQADTLMLFYNLDKTRVDQILEDLGYQLPADYLEKNLLYYLKRTSHGSTLSRIVHAQLAEMAQFHELSWQLYQEALYSDYRDIQGGTTAEGIHTGVMAATIHVTLATYAGVDTRQNELSICPNLPEHWQALAFQFIHQGVTYQFSLTQTSVTITADRDTQLLVQGALIPLTAERPKEVHYQEGHHHHHH	soluble
MSLTIPDSTPSDFSHEFFGSLDPQALAHPDSIKWQHYGEGVIPMWIADMDFPVAPPILRALEDRLTRGLGYPLGRDDRLIADLQTKWASQGLTDVPADGIHFTPSVVPGLYAGVHGLTEPGDRVVTMTPIYHPFHLAINDLGREVAAAPLREGDTRWEIDWDALERAAEGARLLMLCHPHNPCGRVWDADELARLRELVLAHDLYVISDELHADLRFTDAPFEAFAADPRVRDRTLTVTGPCKAFNTAGLGIGVMVTHDPELLARVQRRVAGLGGHPSALSFTMWRVALEDGGPWLARTVEYLRGNRDFMTAFLRERLPWVRFTVPEATYLAWLDLREHPEAGRIQEFLLEEAKVAVHNGPTFAPGEQGAAYQGFIRVNFATSRAILTEALERMARALDTRQEGHHHHHH	soluble
MSLTMAKTLYEKVFDAHVVYEGKNELPILYIDRHLIHEVTSPQAFSGLKMAKRRMARADLTLATIDHDVSTKSMDLNACSDMAKEQITTLMQNTKEFGVRLLGLGDKNQGIVHIVGPELGFTLPGVTLVCGDSHTATHGAFGALAFGIGTSEVEHVMATQTLKQAKLKTMKIECKGQFQKGVYTKDLILYLIAQYGTAKGTGYAIEFCGELIRNLSMEARMTLCNMAIEFGAKVGMIAPDEITFEYIKGKEFAPKGEEFQKYCEYWKSLRSDEGAKYDASITLDVSKIKPQISYGTNPSQVIGIDEKIPKISDFKNQSEQKSLLDALYYVNLEQDQVIEGVKIDIVFIGSCTNGRLEDLKIAADILKGRKIHKNVKALIVPGSMQVRKEAENLGLDKIFIEAGCEWRYAGCSMCLGMNDDKANSGQRVASTSNRNFVGRQGKGSITHLMSPASAAACAIEGVICDNRKYLGEGHHHHHH	soluble
MSLTNDIYDKGLAIRKEVVGVDSVERSLRDATEYTAPFQALATEYCWGRVWGRDELDRRTRSIANIAMMIALNRAPELRIHIKGALTNGVPRKEIAEVILQSAVYCGIPAAGDAFRQMQSVFDEADAAAACAPASPAARKSIAVIGLGAMGYPMAAQLVRAGHDVRPYDANPAVLARFAEEFNTGVAPIASCVAGADFVVTVLPDSTVVTRVLDGDNGSGGVAARIKPGATLIDMTSGDPATTRALAARLGEAGVRMIDAPVSGGFVKARTGELAIMVGGEADTVAAAMDILQAMGTSIAHVGPIGAGHTVKALNNYISAIGWLAVIEAIHTGKRFGLDVATMNRIFNQSSGRNSSTANKVEQAVLSGTYHTGFSLALMAKDVGIAVGLARQMGVDAEVGTLAHRIIQTAFDQSAEKDLDNSRLFDILYSEGHHHHHH	not soluble
MSLTNVAEDQLTAQAVAPPTEASAALEPALETPESPVETLKTSISASRRVRARLARRMTAQRSTTNPVLEPLVAVHREIYPKADLSILQRAYEVADQRHASQLRQSGDPYITHPLAVANILAELGMDTTTLVAALLHDTVEDTGYTLEALTEEFGEEVGHLVDGVTKLDRVVLGSAAEGETIRKMITAMARDPRVLVIKVADRLHNMRTMRFLPPEKQARKARETLEVIAPLAHRLGMASVKWELEDLSFAILHPKKYEEIVRLVAGRAPSRDTYLAKVRAEIVNTLTASKIKATVEGRPKHYWSIYQKMIVKGRDFDDIHDLVGVRILCDEIRDCYAAVGVVHSLWQPMAGRFKDYIAQPRYGVYQSLHTTVVGPEGKPLEVQIRTRDMHRTAEYGIAAHWRYKEAKGRNGVLHPHAAAEIDDMAWMRQLLDWQREAADPGEFLESLRYDLAVQEIFVFTPKGDVITLPTGSTPVDFAYAVHTEVGHRCIGARVNGRLVALERKLENGEVVEVFTSKAPNAGPSRDWQQFVVSPRAKTKIRQWFAKERREEALETGKDAMAREVRRGGLPLQRLVNGESMAAVARELHYADVSALYTAIGEGHVSAKHVVQRLLAELGGIDQAEEELAERSTPATMPRRPRSTDDVGVSVPGAPGVLTKLAKCCTPVPGDVIMGFVTRGGGVSVHRTDCTNAASLQQQAERIIEVLWAPSPSSVFLVAIQVEALDRHRLLSDVTRALADEKVNILSASVTTSGDRVAISRFTFEMGDPKHLGHLLNAVRNVEGVYDVYRVTSEGHHHHHH	not soluble
MSLTPPRSLLHALKPFLEAGADKEALVFGAHRISFGDMAGHAAALAEVLRSKGVQKGDRVAALFPPRPEAILSLLACWLIGATWMGINPRYQRREQAQILADAGVKVLMSMTRIGKRDLEDDLASHETDLGFSVLRFAPAFAPAALPEKLPYDEVLRRWREATETLEPDSPSVVIYTSGSTGKPKGALITHAGLAFRSHTLHIDRFNLPAPTQLIDLPVNHIGALASGIGVAMASGGKMILSEQFDPGVTLRTAFAEKLAIISGVPAMLARLVEHPDFATSDLSSVKAISWGAGPINEAVLRKLLNATDALFSQQYGMTESNGPIVFTPPTRDVEVLLNTTGKPDPRLELRIADESGQPLPDGEEGEVQIRHPHPFAGYLGNAEASAAAFTADGFLHTGDLAMVREDGYLVFCGRSKEMYKSGGFNVYPREIEIALEAHPAIRAAAVLGVDDEQWGQVGHAFVELASPLTSDDITGWCKARLADFKVPKRVSVIDAMPRTPVDKVDRMQLAELAARGEGHHHHHH	soluble
MSLTPSVSTKELEGGLLIVDEMSMVDTWLANTLFKAIPTNMQVILVGDKDQLPSVGPGQVLHDLLEIEQIPKMELNQIYRQGDGSSIIPLAHEIKEGRLPKDFTKNQKDRSYFRSDAYQIEPLISKIVEKAKNKGFRAQDIQVLAPMYRGPAGIDALNKMMQEIFNPGKPGKKEVHWNDTVYRIGDKVLQLVNTPELNVFNGDMGEITGIILAKDSEDKVDELVIQFDANEVTYKRNEWNKITLSYCCSIHKSQGSEFKMVILPMVHQYQRMLQRNLLYTAVTRSKELLILLGEEQAYVTCVANESASRMTTLKSRIMDNDKMNEGHHHHHH	not soluble
MSLTPTFKDKIARAPKAELHIHIEGSLEPELIFALAQRNGVKLAYDSIDALRAAYAFTDLQSFLDIYYAGASVLLTEQDFYDMTAAYCERALADNVVHTELFFDPQTHTERGVSIETVVAGIERALADAEQRGLSSKLILCFLRHLSEEDALATFESALPLFERYRHRLIGVGLDSSELGHPPTKFARVFEKARALGLKLVAHAGEEGPPAYIYEALDVLKVDRIDHGVRSIEDEALVERLAKTRTALTVCPLSNLKLCVFDDMAKHTLKALLDRGVAVTINSDDPAYFGGYVNENYFATAEGLQLTDAEVHAVIRNGFEASFIEPAQRDALYARLDAYWQAAEGHHHHHH	soluble
MSLTRAQLEDMPQYQQVYSSINTWPSKKWYVGKGVHLSELLSLVGIKDDARLLKFTSQDGYTMTLTVKELLVDKRYYFPHFNDNKIGDGEGNIAGSSQGAELVEPIIALISVEGSNNPNYMNDLNTLVLMMGQRAVTEQTGNAFVKYLNKIEVLTSEVPKWDSPQANPGSGEVSAGTMIALSTARMDDDKIYYTTDGSTPNLNSPIYNWIAKRWWSARADILGTYNHPIGPINENTTIKAITIGPGKENSDVATFTYTVPVSKPASETSIVAPNEATNYPDQALEKPLQSEPKATLTDVQNHWAQKNINELIASGIAGGYPDSSFRPDNTITRAEFATMLVKAFNLQNQGGKVFADSEQHWAKEYISRATASGVVSGYDAENFGPDKLITREQMAVMISKAAKLVLKAEAMHFADSAGISEWAKEAVLAANQSGIVKGYPDNTIRPQGSATRAEAVTVIVNALTLKEGHHHHHH	not soluble
MSLTRATKGFLSKSLPKASEATPGSQSSDYIPLVSLQLASGAFLLNEAFCTTIQIPMEKLKWTSPFSCLRMSLVTRRQDLKTQSPQDCTSLSSSPPSCDGISLKSEESSDQESNAMLEHMGKLWATVVALAWLEHSSANYIIEWELVAAKASSWVEKQKVPEGRTLSTLKNTARQLFVLLRHWDEKLEFNMLCYNPNYVEGHHHHHH	not soluble
MSLTRKKYTYKMRSYINASHAIRWEAGIGSEHPHTWEIICEIVSSNDHMIKFEDIEEVITETISGLSGKFLNTIAPFDKINPTLENLTNYLFDMITDSLKKINCKLIRIEVGESPTRFYCISLDEGHHHHHH	soluble
MSLTRRNDAIAVVVTEPQNRLFVDPFFDRHLRGIRQELVRQGAQLVLLLIEEPDDYPRVGNFLGGGHVDGALLFSLRGDDPLPEMVDRMGLPAVFGGRPVLSPEDRGHRYTYVDADNRGGAREAVRHLVAQGRERIATITGPLNQAAAVDRLDGYRDVLPDSAPDLIVEGDFTLRGGVDAMAELLARCPDLDAVFAASDLMACGALRVLKEHGRRVPEDVAVIGFDDLPPLVETTEPSLTTVHQDIEGMGRLMARLLFERIPATPLDDGDHSLHRVITPTRLILRKTAEGHHHHHH	not soluble
